Assays:
[1] = test system: Pompe fibroblasts and skeletal muscle myoblasts; assay: Internalization by Pompe fibroblasts and skeletal muscle myoblasts; assay type: cell-based
Gaa KO mice = assay: Muscle function in Gaa-knockout mice, 12 biweekly administrations (grip strength, wire hang); assay type: in vivo, mouse; settings: 6 months, with or without miglustat
Source text: In FIG. 18A, * indicates statistically significant compared to Lumizyme® alone (p<0.05, 2-sided t-test). In FIGS. 19A-19G, * indicates statistically significant compared to Lumizyme® alone (p<0.05, multiple comparison using Dunnett's method under one-way ANOVA analysis).

[2] = Plasma total GAA protein pharmacokinetics, phase 1/2 study in adults with Pompe disease; assay type: in vivo, human; settings: for Total GAA Protein AUC0-t / Total GAA Protein AUC0-∞ / Total GAA Protein Cmax: n = 8, geometric mean
Protocol: Mean total GAA protein and miglustat PK results from the first 8 Cohort 1 patients through Visit 9 and the first 2 Cohort 3 patients were assessed.

[3] = Cohort 1, 5 mg/kg alone, n = 8, arithmetic mean
[4] = Cohort 1, 10 mg/kg alone, n = 8, arithmetic mean
[5] = Cohort 1, 20 mg/kg alone, n = 8, arithmetic mean
[6] = Cohort 1, ATB200 20 mg/kg + miglustat high MD, n = 8, arithmetic mean
[7] = Cohort 1, ATB200 20 mg/kg + miglustat high SD, n = 7, arithmetic mean
[8] = Cohort 1, ATB200 20 mg/kg + miglustat low MD, n = 8, arithmetic mean
[9] = Cohort 1, ATB200 20 mg/kg + miglustat low SD, n = 8, arithmetic mean
[10] = Cohort 3, ATB200 20 mg/kg + miglustat high MD (first Cohort 3 line), n = 2, arithmetic mean
[11] = Cohort 3, ATB200 20 mg/kg + miglustat high MD (second Cohort 3 line), n = 2, arithmetic mean

ATB200: recombinant human acid α-glucosidase expressed in CHO cells with increased content of M6P-bearing N-glycans
Kuptake [1]: 7 to 14 nM
intracellular accumulation of dystrophin (Gaa KO mice): lowered intracellular accumulation of dystrophin in Gaa KO mice
increase of distribution half-life (α-phase) ([2]; ATB200 20 mg/kg with miglustat 260 mg relative to ATB200 alone): 45%
increase of total GAA protein exposure (AUC) ([2]; ATB200 20 mg/kg with miglustat 260 mg relative to ATB200 alone at 20 mg/kg): approximately 25%
dose proportionality of plasma total GAA protein ([2]; ATB200 given alone, 5, 10, 20 mg/kg): increases in a slightly greater-than-dose-proportional manner
Total GAA Protein CLT [2, 3]: 2.1 L/h
Total GAA Protein VSS [2, 3]: 4.62 L
Total GAA Protein αt1/2 [2, 3]: 1.1 h
Total GAA Protein βt1/2 [2, 3]: 1.9 h
Total GAA Protein AUC0-t ([2]; Cohort 1, 5 mg/kg alone): 0.215 µg·h/mL
Total GAA Protein AUC0-∞ ([2]; Cohort 1, 5 mg/kg alone): 0.218 µg·h/mL
Total GAA Protein Cmax ([2]; Cohort 1, 5 mg/kg alone): 0.061 µg/mL
Total GAA Protein tmax ([2]; Cohort 1, 5 mg/kg alone, n = 8, median): 3.8 h
Total GAA Protein CLT [2, 4]: 1.59 L/h
Total GAA Protein VSS [2, 4]: 3.87 L
Total GAA Protein αt1/2 [2, 4]: 1.3 h
Total GAA Protein βt1/2 [2, 4]: 1.6 h
Total GAA Protein AUC0-t ([2]; Cohort 1, 10 mg/kg alone): 0.578 µg·h/mL
Total GAA Protein AUC0-∞ ([2]; Cohort 1, 10 mg/kg alone): 0.584 µg·h/mL
Total GAA Protein Cmax ([2]; Cohort 1, 10 mg/kg alone): 0.144 µg/mL
Total GAA Protein CLT [2, 5]: 1.22 L/h
Total GAA Protein VSS [2, 5]: 3.52 L
Total GAA Protein αt1/2 [2, 5]: 1.5 h
Total GAA Protein βt1/2 [2, 5]: 2.1 h
Total GAA Protein AUC0-t ([2]; Cohort 1, 20 mg/kg alone): 1.508 µg·h/mL
Total GAA Protein AUC0-∞ ([2]; Cohort 1, 20 mg/kg alone): 1.512 µg·h/mL
Total GAA Protein Cmax ([2]; Cohort 1, 20 mg/kg alone): 0.345 µg/mL
Total GAA Protein CLT [2, 6]: 0.98 L/h
Total GAA Protein αt1/2 [2, 6]: 2.1 h
Total GAA Protein βt1/2 [2, 6]: 2.5 h
Total GAA Protein CLT [2, 7]: 0.98 L/h
Total GAA Protein αt1/2 [2, 7]: 2.3 h
Total GAA Protein βt1/2 [2, 7]: 2.7 h
Total GAA Protein CLT [2, 8]: 1.02 L/h
Total GAA Protein αt1/2 [2, 8]: 1.9 h
Total GAA Protein βt1/2 [2, 8]: 2.5 h
Total GAA Protein CLT [2, 9]: 1.09 L/h
Total GAA Protein αt1/2 [2, 9]: 1.8 h
Total GAA Protein βt1/2 [2, 9]: 2.4 h
Total GAA Protein CLT [2, 10]: 0.69 L/h
Total GAA Protein αt1/2 [2, 10]: 2 h
Total GAA Protein βt1/2 [2, 10]: 2.4 h
Total GAA Protein CLT [2, 11]: 0.66 L/h
Total GAA Protein αt1/2 [2, 11]: 1.9 h
Total GAA Protein βt1/2 [2, 11]: 2.6 h
volume of distribution ([2]; in vivo): relatively high volume of distribution

Source: patent US10512676B2, “Formulations comprising recombinant acid alpha-glucosidase” (Amicus Therapeutics, Inc., priority 2016, dated 2019)
